# B1: alkyl-β2gpi: reduced and alkylated β2-glycoprotein I (protein)
# chain: GRTCPKPDDLPFSTVVPLKTFYEPGEEITYSCKPGYVSRGGMRKFICPLTGLWPINTLKCTPRVCPFAGILENGAVRYTTFEYPNTISFSCNTGFYLNGADSAKCTEEGKWSPELPVCAPIICPPPSIPTFATLRVYKPSAGNNSLYRDTAVFECLPQHAMFGNDTITCTTHGNWTKLPECREVKCPFPSRPDNGFVNYPAKPTLYYKDKATFGCHDGYSLDGPEEIECTKLGNWSAMPSCKASCKVPVKKATVVYQGERVKIQEKFKNGMLHGDKVSFFCKNKEKKCSYTEDAQCIDGTIEVPKCFKEHSSLAFWKTDASDVKPC
# Columns and labels:
# [1] = ThT fluorescence enhancement by biopharmaceuticals; format: physicochemical; details: after alkylation of cysteine residues
# Method: Fluorescence of ThT—protein/peptide adducts was measured as follows. […] Fluorescence was measured at 485 nm upon excitation at 435 nm. Background signals from buffer, buffer with ThT and protein/peptide solution without ThT were subtracted from corresponding measurements with protein solution incubated with ThT. Regularly, fluorescence of Aβ was used as a positive control, and fluorescence of FP10, a non-amyloid fibrin fragment^16, was used as a negative control. Fluorescence was measured in triplicate on a Hitachi F-4500 fluorescence spectrophotometer (Ltd., Tokyo, Japan).
# β2-GPI was reduced and alkylated as follows. Sixhundredforty μl of β2-GPI stock was mixed with 640 μl of 8 M Urea (cooled solution) in 0.1 M Tris pH-8.2. […]
# (§1) Protein therapeutics were obtained from the local hospital pharmacy and analyzed within the expiry limits as stated by the manufacturers.
# Fluorescence of Thioflavin T (ThT; Sigma T-3516, St. Louis, Mo., USA) and Congo red (CR; Aldrich Chemical Company Inc., Milwaukee, Wis., USA) was measured on a Hitachi F-4500 spectrophotometer at an excitation wavelength of 435 nm and emission wavelength of 485 nm for ThT and an excitation wavelength of 550 nm and emission wavelength of 595 nm for Congo red. […] Fluorescence was measured in triplicate. Background fluorescence of both protein in buffer and dye-solution were subtracted from the total fluorescence signal. […]
# tPA = tPA (Homo sapiens, UniProt P00750); experiment: tPA/plasminogen activation assay; format: biochemical; details: β2gpi exposed to cardiolipin or alkylated, 100 μg/ml
# Method: β2-GPI was reduced and alkylated as follows. Sixhundredforty μl of β2-GPI stock was mixed with 640 μl of 8 M Urea (cooled solution) in 0.1 M Tris pH-8.2. The solution was degassed with N2 gas for approximately 6 minutes. From a 1 M DTT stock 12.8 μl was added to the solution, mixed and incubated for 3 hours at room temperature. A 1 M Iodoacetamide (Sigma; I-6125) was prepared, of which 25.6 μl was added to the β2-GPI reaction mixture. The solution was subsequently dialysed against PBS. […] Signals obtained with alkyl-β2gpi are compared with those obtained with native β2gpi starting material and with positive control acid/heat denatured amyloid-like misfolded γ-globulins.
# Exiqon Peptide Immobilizer plates were blocked for 1 hour with PBS, 1% Tween20 and rinsed twice with distilled water. The conversion of the chromogenic substrate S-2251 (Chromogenix, Italy) by plasmin was kinetically measured at 37° C. on a Spectramax340 microplate reader at a wavelength of 405 nm. […] Denatured γ-globulins (100 μg/ml) with amyloid-like structure was used as reference and positive control. Lyophilized γ-globulins (Sigma, Mo., USA) were dissolved in a 1(:)1 volume ratio of 1,1,1,3,3,3-hexafluoro-2-propanol and trifluoro-acetic acid and subsequently dried under air. […]
# as §1
# Sequence of tPA (P00750 36-562): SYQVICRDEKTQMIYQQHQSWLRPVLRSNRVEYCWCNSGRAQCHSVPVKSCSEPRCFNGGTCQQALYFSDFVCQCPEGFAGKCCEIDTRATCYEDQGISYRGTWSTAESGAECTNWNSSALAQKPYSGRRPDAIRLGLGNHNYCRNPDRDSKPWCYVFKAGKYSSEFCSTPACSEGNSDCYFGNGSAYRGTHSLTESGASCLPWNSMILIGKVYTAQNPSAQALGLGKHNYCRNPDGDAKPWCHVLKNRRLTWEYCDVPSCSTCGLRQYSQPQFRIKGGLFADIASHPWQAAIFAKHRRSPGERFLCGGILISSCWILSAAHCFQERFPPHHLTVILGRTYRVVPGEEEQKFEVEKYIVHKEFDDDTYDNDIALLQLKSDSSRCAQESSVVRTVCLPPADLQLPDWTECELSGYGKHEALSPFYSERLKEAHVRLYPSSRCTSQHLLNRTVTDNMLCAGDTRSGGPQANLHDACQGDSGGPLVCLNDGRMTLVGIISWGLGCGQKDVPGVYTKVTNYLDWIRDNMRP
molecule,measurement,setting,value
B1,Thioflavin T fluorescence,[1],enhanced Thioflavin T fluorescence
same,ability to activate tPA/plasminogen,tPA,amyloid-like properties

# — US20080220446A1, “Method for Detecting and/or Removing Protein and/or Peptide Comprising a Cross-Beta Structure From an Aqueous Solution Comprising a Protein” (priority 2005, published 2008)
